In paper PMC6886185, “eIF4A2 drives repression of translation at initiation by Ccr4-Not through purine-rich motifs in the 5′UTR”:

What was measured:
eIF4A2 [1] = target: T1, eIF4A2 (UniProt Q14240 1-407); assay: fluorescence anisotropy; 1 mM AMP-PNP, 1 mM Mg2+; 20 mM Hepes/KOH pH 7.5, 100 (mM) KCl, 1 mM MgCl2, 1 mM AMP-PNP, 1 mM TCEP, 0.1% DMSO, +/-50 uM silvestrol (10 uM in Fig 4a legend), 60 min, 25 C; numeric Kd of; conditions: protein: recombinant; tags: SUMO tag cleaved; label: 5' FAM; single strand, unstructured
T1 sequence (Q14240 whole entry): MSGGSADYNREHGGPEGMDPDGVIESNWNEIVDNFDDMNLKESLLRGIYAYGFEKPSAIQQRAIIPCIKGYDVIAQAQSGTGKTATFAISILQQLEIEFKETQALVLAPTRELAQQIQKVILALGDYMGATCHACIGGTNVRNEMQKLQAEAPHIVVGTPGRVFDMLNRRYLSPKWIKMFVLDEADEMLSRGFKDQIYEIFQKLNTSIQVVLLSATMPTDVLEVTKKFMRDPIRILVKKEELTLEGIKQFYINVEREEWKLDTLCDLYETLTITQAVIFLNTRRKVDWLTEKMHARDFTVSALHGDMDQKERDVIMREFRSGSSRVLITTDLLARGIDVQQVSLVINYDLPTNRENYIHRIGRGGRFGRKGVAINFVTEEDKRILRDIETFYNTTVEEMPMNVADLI

eIF4A1 = eIF4A1 (UniProt P60842 1-406); assay: fluorescence anisotropy; AMP-PNP; 20 mM Hepes/KOH pH 7.5, 100 (mM) KCl, 1 mM MgCl2, 1 mM AMP-PNP, 1 mM TCEP, 0.1% DMSO, +/-50 uM silvestrol (10 uM in Fig 4a legend), 60 min, 25 C; numeric Kd of; conditions: protein: recombinant; tags: SUMO tag cleaved; label: FAM; blunt
eIF4A1, sequence (P60842 whole entry): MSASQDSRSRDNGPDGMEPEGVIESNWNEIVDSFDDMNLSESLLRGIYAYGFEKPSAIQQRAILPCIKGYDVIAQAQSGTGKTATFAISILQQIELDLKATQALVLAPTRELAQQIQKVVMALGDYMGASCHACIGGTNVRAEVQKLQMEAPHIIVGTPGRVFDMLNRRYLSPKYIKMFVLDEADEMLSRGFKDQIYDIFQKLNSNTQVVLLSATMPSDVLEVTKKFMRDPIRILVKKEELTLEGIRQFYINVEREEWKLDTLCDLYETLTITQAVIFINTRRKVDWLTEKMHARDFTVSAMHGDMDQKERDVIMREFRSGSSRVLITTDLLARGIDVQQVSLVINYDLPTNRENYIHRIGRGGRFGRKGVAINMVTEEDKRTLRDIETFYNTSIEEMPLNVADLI

eIF4A2 [2] = target: T1, eIF4A2; assay: as above; conditions: protein: recombinant; tags: SUMO tag cleaved; label: FAM; blunt
eIF4A2 [3] = target: T1, eIF4A2; assay: EMSA; AMP-PNP; bound even under high molar excess of (CAA)6CA; 20 mM Hepes/KOH pH 7.5, 100 (mM) KCl, 1 mM MgCl2, 1 mM AMP-PNP, 1 mM TCEP, 0.1% DMSO, +/-50 uM silvestrol (10 uM in Fig 4a legend), 60 min, 25 C; numeric Kd of; conditions: protein: recombinant; tags: SUMO tag cleaved; label: Dy780; single strand
eIF4A2 [4] = target: T1, eIF4A2; assay: competition; 20-fold excess; readily displaces pre-bound FAM-(CAA)6CA; 20 mM Hepes/KOH pH 7.5, 100 (mM) KCl, 1 mM MgCl2, 1 mM AMP-PNP, 1 mM TCEP, 0.1% DMSO, +/-50 uM silvestrol (10 uM in Fig 4a legend), 60 min, 25 C; numeric Kd of; conditions: protein: recombinant; tags: SUMO tag cleaved; label: none; single strand

B1: (AG)10 ssRNA (ssRNA)
RNA: AGAGAGAGAGAGAGAGAGAG
- binding result (eIF4A2 [1]): binds

B2: (AG)10:(CU)10 dsRNA (dsRNA)
RNA 1: AGAGAGAGAGAGAGAGAGAG
RNA 2: CUCUCUCUCUCUCUCUCUCU
- binding result (eIF4A1): no binding
- binding result (eIF4A2 [2]): no binding

B3: Dy780-(AG)10 ssRNA (ssRNA)
RNA: AGAGAGAGAGAGAGAGAGAG
- binding result (eIF4A2 [3]): binds

B4: (AG)10 unlabelled competitor (ssRNA)
RNA: AGAGAGAGAGAGAGAGAGAG
- binding result (eIF4A2 [4]): binds
